{"source": "patent US20140322225A1", "about": "(ADRENOMED, published 2014)", "key": {"[1]": {"biological_target": "T1, human adrenomedullin (hADM 1-52) (human)", "T1 construct": "52 amino acids, aa 95-146 of pre-proADM; also called Human ADM 1-52", "T1 sequence (peptide, as listed by the source)": "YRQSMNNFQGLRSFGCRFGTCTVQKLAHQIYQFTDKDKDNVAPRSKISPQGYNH", "experiment": "SPR (Biacore 2000), antibody captured via anti-mouse Fc, adrenomedullin as analyte", "experimental": "Reversible immobilization of the antibodies was performed using an anti-mouse Fc antibody covalently coupled in high density to a CM5 sensor surface according to the manufacturer's instructions (mouse antibody capture kit; GE Healthcare). (Lorenz et al., “Functional Antibodies Targeting IsaA of Staphylococcus aureus Augment-lost Immune Response and Open New Perspectives for Antibacterial Therapy”; Antimicrob Agents Chemother. 2011 January; 55(1): 165-173.)"}, "[2]": {"biological_target": "T1, human adrenomedullin (hADM 1-52)", "experiment": "cell-based or functional assay"}, "[3]": {"biological_target": "T1, human adrenomedullin (hADM 1-52)", "experiment": "cell-based or functional assay", "remark": "listed apart in the source"}, "[4]": {"biological_target": "human recombinant adrenomedullin receptor (CRLR+RAMP3) (human)", "experiment": "cell-based or functional assay"}}}
{"binder": "NT-H (antibody, V domains shown, also called NT-H antibody; antibody NT-H) VH: QVQLQQSGAELMKPGASVKISCKATGYTFSRYWIEWVKQRPGHGLEWIGEILPGSGSTNYNEKFKGKATITADTSSNTAYMQLSSLTSEDSAVYYCTEGYEYDGFDYWGQGTTLTVSS VL: DVLLSQTPLSLPVSLGDQATISCRSSQSIVYSNGNTYLEWYLQKPGQSPKLLIYRVSNRFSGVPDRFSGSGSGTDFTLKISRVEAEDLGVYYCFQGSHIPYTFGGGTKLEIK", "values": [{"measurement": "Kd", "setting": "[1]", "result": 5.9, "unit": "nM"}, {"measurement": "IC50 (read off the curve), half of the antibody's own maximal inhibition of cAMP formation induced by 5.63 nM hADM", "setting": "[2]", "result": "~2", "unit": "µg/mL"}, {"measurement": "fold stability of hADM in human citrate plasma with NT-H against hADM alone (7.8 h)", "setting": "[3]", "result": 2.3, "unit": "fold"}]}
{"binder": "mouse adrenomedullin (mADM 1-50) (peptide) peptide: YRQSMNQGSRSNGCRFGTCTFQKLAHQIYQLTDKDKDGMAPRNKISPQGYNH", "values": [{"measurement": "EC50 (read off the curve), cAMP formation", "setting": "[4]", "result": "~0.08", "unit": "nM"}]}
